Data taken from the supplement of paper PMC10567573.
± gives the standard deviation.

Assay: protein stability index of a GFP-peptide fusion (GPS, HEK-293T) (PSI 1-6); higher = more stable
[1] = treatment: DMSO, c terminus: a fixed tail appended
[2] = treatment: MLN4924 1 uM, 8 h, c terminus: a fixed tail appended
[3] = treatment: DMSO, c terminus: native
[4] = treatment: MLN4924 1 uM, 8 h, c terminus: native
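Also: 24-mer peptide tiles fused after GFP, lentivirally expressed, FACS-sorted into six equal bins by GFP/DsRed ratio, decoded by Illumina sequencing, PSI is the read-weighted mean bin number.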

Sequence | protein stability index [1] | protein stability index [2] | protein stability index [3] | protein stability index [4]
PPETKHQALSGTPKKGPAPSLSPG [TSPAN10] | 5.31 ± 0.31 | 5.31 ± 0.13 | – | –
PPWKEAFRQRCLERMRNSRDRLLN [RPAIN] | 2.66 ± 0.18 | 2.75 ± 0.33 | – | –
PQARMREENMERIGEEVRQLMEKL [BEX1] | 4.51 ± 0.33 | 4.52 ± 0.23 | – | –
PQLASLCLDTIDKSTMDAISAEGF [BTBD1] | 3.98 ± 0.16 | 3.99 ± 0.057 | – | –
PSGEMVKSTTSLTSSSTSGSSDKV [MLH1] | 5.47 ± 0.39 | 5.59 ± 0.17 | – | –
PSMVSGGYVANSSNCISGVCSVRG [KRT71] | 3.35 ± 0.082 | 3.4 ± 0.23 | – | –
PSPASEQTVTVEEAAGGESALAPS [MAP2] | 5.45 ± 0.53 | 5.5 ± 0.15 | – | –
PSVADNLLASSDAALSASMASLLE [SERTAD1] | 4.51 ± 0.18 | 4.39 ± 0.15 | – | –
PTPMPHNKGTRFSEAWEYFHLAPA [ZBED2] | 2.65 ± 0.2 | 2.71 ± 0.33 | – | –
PTWIIDPIDGTTNFVHRFPFVAVS [IMPA1] | 2.36 ± 0.22 | 2.25 ± 0.25 | – | –
PVPVIVSNFNYFYHRETEGEEQAQ [KCNA1] | 3.62 ± 0.25 | 3.81 ± 0.4 | – | –
PVRDECEERNRFTETREEDVTDEH [FAM9B] | 5.44 ± 0.21 | 5.66 ± 0.24 | – | –
PVSDTPDEGDEPMPIPEDLSTTSG [IKZF1] | 5.75 ± 0.25 | 5.66 ± 0.3 | – | –
PWEPPVLPILTWPVLQSRTGLVYD [HDAC6] | 3.46 ± 0.51 | 3.35 ± 0.23 | – | –
QAAFTQQGMEGIKVFLHERELWLK [TBX5] | 2.86 ± 0.37 | 2.92 ± 0.4 | – | –
QAINNAINYLGAESLRPLVQTPPG [IKZF1] | 2.39 ± 0.29 | 2.25 ± 0.32 | – | –
QARKALFEKWEQETAAGKGKGEAR [SMTNL2] | 4.836 ± 0.03 | 4.84 ± 0.29 | – | –
QAYAHYLLATFPRRALAPPSAGFR [ANKRD9] | 2.31 ± 0.22 | 2.37 ± 0.23 | – | –
QCKEWQVLMCGFPFLLLFLGNFFT [TMEM120A] | 2.81 ± 0.053 | 2.92 ± 0.53 | – | –
QCRERREHPNLVRDHVETELLKEA [TEKT4] | 4.77 ± 0.19 | 4.97 ± 0.23 | – | –
QDGSPTTSRRPSGTGTGPEDGRPS [PDLIM4] | 5.37 ± 0.22 | 5.66 ± 0.16 | – | –
QEITSETEDLCEKPDDEVKETAHD [RIPK4] | 5.6 ± 0.17 | 5.69 ± 0.21 | – | –

Sequence | protein stability index [1] | protein stability index [2] | protein stability index [3] | protein stability index [4]
QELASLLRTYLARLPWAGQLTKEL [PBXIP1] | 2.95 ± 0.59 | 2.72 ± 0.7 | – | –
QELEEEIKELYENFCKHNGSKNVF [ATL3] | 3.02 ± 0.32 | 3.57 ± 0.48 | – | –
QENAIQTMELRNYFSLYCLHQETQ [SNX8] | 2.58 ± 0.31 | 2.52 ± 0.4 | – | –
QGMIQLALSGASQPGPSGAPAQRA [RETREG3] | 4.26 ± 0.1 | 4.32 ± 0.22 | – | –
QGNGLFYSSGPQSWYPKANNQDFI [ZC2HC1C] | 2.6 ± 0.16 | 2.85 ± 0.051 | – | –
QGQPAMEGHCVIQVDVGDVNDNAP [PCDHGC5] | 4.97 ± 0.5 | 4.78 ± 0.075 | – | –
QHAALGGTATRQNNWPPLPSFCPV [SCAMP3] | 3.33 ± 0.28 | 3.39 ± 0.37 | – | –
QHEESTEGEADHSGYAGELGFRAF [UFD1] | 4.81 ± 0.31 | 4.88 ± 0.31 | – | –
QHYFYDYDCGEDFYRSTAPSEDIW [MYCL] | 2.63 ± 0.49 | 2.59 ± 0.33 | – | –
QILEGELFDFDLEVKPVLEVLVGK [RSPH3] | 2.13 ± 0.58 | 2.37 ± 0.67 | – | –
QIMFDVEMHTSRDHSSQSEEEVVE [BNIP3L] | 5.33 ± 0.063 | 5.37 ± 0.22 | – | –
QKELQDVGQSLRIKEQEVCKLQEQ [SASS6] | 4.88 ± 0.25 | 5.03 ± 0.36 | – | –
QKGIPPSLRGRAWQYLSGGKVKLQ [TBC1D10A] | 2.8 ± 0.13 | 3 ± 0.21 | – | –
QLFTEYGRLAMDEIFQKPFQTLMF [ATL3] | 2.33 ± 0.49 | 2.35 ± 0.47 | – | –
QLSATGQKLYVRLFQRKLSWIKMT [FAN1] | 2.3 ± 0.6 | 2.04 ± 0.17 | – | –
QLTCFSITCSSTMSYSCCLPSLGC [KRT34] | 3.04 ± 0.58 | 2.65 ± 0.35 | – | –
QLVRYSADGLLQLGPLGSTAFLPD [GALNT9] | 2.33 ± 0.27 | 2.67 ± 0.3 | – | –
QNARLAELERKLREVMESAVGNSS [FBXO28] | 3.68 ± 0.23 | 3.52 ± 0.34 | – | –
QPSFEPTKNKELTDEFRELRATVE [FADS1] | 4.98 ± 0.19 | 4.86 ± 0.35 | – | –
QQPPRLLIVHIALPSWADICTNLC [M1AP] | 3 ± 0.3 | 2.74 ± 0.51 | – | –
QQQCHEMAERLEDSVLKGMQAASS [SDE2] | 4.17 ± 0.33 | 4.2 ± 0.41 | – | –
QRSYFLRIFDIKDGKLLWEQELYN [WASL] | 2.21 ± 0.48 | 2.08 ± 0.4 | – | –

Sequence | protein stability index [1] | protein stability index [2] | protein stability index [3] | protein stability index [4]
QRTVGQLMELCRLYHRADVEKVLR [EDARADD] | 2.38 ± 0.45 | 2 ± 0.22 | – | –
QVETSIEGTIPFSKPVKVYIMPKP [INTS4] | 2.65 ± 0.33 | 2.65 ± 0.42 | – | –
RAGLDLPTIDTGYDSQPQDVLGIR [TRAF3IP2] | 4.25 ± 0.37 | 4.29 ± 0.18 | – | –
RAIPELTKLLNDEDQVVVNKAAVM [CTNNB1] | 3.91 ± 0.16 | 3.89 ± 0.21 | – | –
RARGWAAAARAAQRRRRVENAGGS [RSAD1] | 4.48 ± 0.19 | 4.77 ± 0.17 | – | –
RAYRFVQGKDWGFKKFIRRDFLLD [SPOPL] | 2.48 ± 1.1 | 2.28 ± 0.29 | – | –
RCHRGYTLDPNGKTCSRVDHCAQQ [MATN2] | 3.68 ± 0.28 | 3.22 ± 0.34 | – | –
RCRPRSLIDYKSYMDTKLLVARFL [FAM189A2] | 2.42 ± 0.11 | 2.3 ± 0.3 | – | –
RDGRRDRYSSDTTPLLNGSSQDRM [GOSR1] | 4.76 ± 0.07 | 4.85 ± 0.2 | – | –
RDLALVSRDGMNIVLNKINQILME [INTS3] | 2.58 ± 0.28 | 2.69 ± 0.67 | – | –
RDPLQTDTLQNDYFAIKQEVVTPD [ETS1] | 4.89 ± 0.42 | 4.9 ± 0.47 | – | –
REKTNICYLSFPDSNSGCLGDTQF [DENND6A] | 2.88 ± 0.063 | 2.9 ± 0.25 | – | –
RETLIIAVLVSASIANLWLWMNQ [FATE1] | – | – | 2.54 ± 0.14 | 2.31 ± 0.21
RFHRARWGLEEEDFQPREEAMLYH [P3H4] | 2.93 ± 0.11 | 2.9 ± 0.13 | – | –
RFTTSKLQSFEDLASISTYGFRGE [MLH1] | 3.24 ± 0.47 | 3.12 ± 0.36 | – | –
RGGGGGGGGGAPRGRYGPPSRRSE [SRSF1] | 5.61 ± 0.1 | 5.49 ± 0.071 | – | –
RGIDSSSVKLRGSSLFMDTEKSGK [WEE1] | 4.91 ± 0.57 | 4.99 ± 0.25 | – | –
RGLRGPNLTSPASITFTTGLEAPR [TNXB] | 3.84 ± 0.2 | 3.92 ± 0.47 | – | –
RGRHEQSPTSRPRKVSSLPPRSC [C22orf15] | – | – | 3.06 ± 0.81 | 3.5 ± 0.85
RGVPLLEWETEVEMDKLRASDIME [CLCN6] | 4.2 ± 0.043 | 4.3 ± 0.13 | – | –
RHEVIMDRHGVYGLQRNLLVENII [TRIM63] | 2.42 ± 0.13 | 2.31 ± 0.22 | – | –
